# *1 amine or outer side, *2 acyl side, *3 side chain or, on linkers, in order; H or OH if unused. Bridges are numbered along the chain shown (N, C = ends). [ ]: non-standard residue; d: D form. The star is where a group is joined. C20 diacid = O=C(O)CCCCCCCCCCCCCCCCCCC(=O)*; γGlu = O=C(O)[C@H](CCC(=O)[*:2])N[*:1]; Hyp = O=C(O)[C@@H]1C[C@@H](O)CN1; NMeI = CC[C@H](C)[C@H](NC)C(=O)O; Aad = N[C@@H](CCCC(=O)O)C(=O)O; Sar = CNCC(=O)O
# T1: human amylin receptor 3 (hAMYR3), hCTR2 co-expressed with human receptor activity modifying protein 3 (hRAMP3) (human, UniProt P30988 25-474; O60896 24-148)
# T1 sequence (looked up) 1: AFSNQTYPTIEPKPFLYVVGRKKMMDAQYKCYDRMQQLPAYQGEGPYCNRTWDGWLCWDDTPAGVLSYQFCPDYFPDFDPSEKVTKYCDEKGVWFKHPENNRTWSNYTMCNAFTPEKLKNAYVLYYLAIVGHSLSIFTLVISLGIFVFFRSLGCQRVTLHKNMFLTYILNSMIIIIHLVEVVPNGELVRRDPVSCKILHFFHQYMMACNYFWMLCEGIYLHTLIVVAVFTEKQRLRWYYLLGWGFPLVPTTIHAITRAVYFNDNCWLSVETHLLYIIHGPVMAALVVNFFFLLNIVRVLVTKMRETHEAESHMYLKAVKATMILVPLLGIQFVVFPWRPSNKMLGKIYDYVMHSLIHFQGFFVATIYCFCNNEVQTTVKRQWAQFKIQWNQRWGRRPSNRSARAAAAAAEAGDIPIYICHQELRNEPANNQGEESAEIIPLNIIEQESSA
# T1 sequence (looked up) 2: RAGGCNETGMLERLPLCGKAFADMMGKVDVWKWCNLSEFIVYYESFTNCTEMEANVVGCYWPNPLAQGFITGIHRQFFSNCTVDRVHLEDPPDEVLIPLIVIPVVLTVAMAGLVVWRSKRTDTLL
# Target: T1, human amylin receptor 3 (hAMYR3), hCTR2 …
# Experiment: cell-based or functional assay
row,hAMYR3 EC50 (nM); cAMP induction,Binder
1,0.28 nM,{C20 diacid-γGlu}-RCQTATCATERLAHFLQRF[Sar]A[NMeI]LSSTEVGSNTP-NH2 (disulfide 2-7; SMILES CC[C@H](C)[C@@H](C(=O)N[C@@H](CC(C)C)C(=O)N[C@@H](CO)C(=O)N[C@@H](CO)C(=O)N[C@H](C(=O)N[C@@H](CCC(=O)O)C(=O)N[C@H](C(=O)NCC(=O)N[C@@H](CO)C(=O)N[C@@H](CC(N)=O)C(=O)N[C@H](C(=O)N1CCC[C@H]1C(N)=O)[C@@H](C)O)C(C)C)[C@@H](C)O)N(C)C(=O)[C@H](C)NC(=O)CN(C)C(=O)[C@H](Cc1ccccc1)NC(=O)[C@H](CCCNC(=N)N)NC(=O)[C@H](CCC(N)=O)NC(=O)[C@H](CC(C)C)NC(=O)[C@H](Cc1ccccc1)NC(=O)[C@H](Cc1c[nH]cn1)NC(=O)[C@H](C)NC(=O)[C@H](CC(C)C)NC(=O)[C@H](CCCNC(=N)N)NC(=O)[C@H](CCC(=O)O)NC(=O)[C@@H](NC(=O)[C@H](C)NC(=O)[C@@H]1CSSC[C@H](NC(=O)[C@H](CCCNC(=N)N)NC(=O)CC[C@H](NC(=O)CCCCCCCCCCCCCCCCCCC(=O)O)C(=O)O)C(=O)N[C@@H](CCC(N)=O)C(=O)N[C@@H]([C@@H](C)O)C(=O)N[C@@H](C)C(=O)N[C@@H]([C@@H](C)O)C(=O)N1)[C@@H](C)O) [[19CD]-isoGlu-R-C( )-QTAT-C( )-ATERLAHFLQRF-Gly(Me)-A-Ile(Me)-LSSTEVGSNTP-NH2 (Compd. 96)]
2,0.29 nM,{C20 diacid}-[γGlu]RCGTATCATERLAHFLTRSSF[Sar]A[NMeI]LSSTEVGSST[Hyp]-NH2 (disulfide 3-8) [[19CD]-isoGlu-R-C( )-GTAT-C( )-ATERLAHFLTRSSF-Gly(Me)-A-Ile(Me)-LSSTEVGSST-Hyp-NH2 (Compd. 9)]
3,0.17 nM,{C20 diacid}-[γGlu]RCQTATCATDRLAHFLQRSSF[Sar]A[NMeI]LSSTEVGSGT[Hyp]-NH2 (disulfide 3-8; SMILES CC[C@H](C)[C@@H](C(=O)N[C@@H](CC(C)C)C(=O)N[C@@H](CO)C(=O)N[C@@H](CO)C(=O)N[C@H](C(=O)N[C@@H](CCC(=O)O)C(=O)N[C@H](C(=O)NCC(=O)N[C@@H](CO)C(=O)NCC(=O)N[C@H](C(=O)N1C[C@H](O)C[C@H]1C(N)=O)[C@@H](C)O)C(C)C)[C@@H](C)O)N(C)C(=O)[C@H](C)NC(=O)CN(C)C(=O)[C@H](Cc1ccccc1)NC(=O)[C@H](CO)NC(=O)[C@H](CO)NC(=O)[C@H](CCCNC(=N)N)NC(=O)[C@H](CCC(N)=O)NC(=O)[C@H](CC(C)C)NC(=O)[C@H](Cc1ccccc1)NC(=O)[C@H](Cc1c[nH]cn1)NC(=O)[C@H](C)NC(=O)[C@H](CC(C)C)NC(=O)[C@H](CCCNC(=N)N)NC(=O)[C@H](CC(=O)O)NC(=O)[C@@H](NC(=O)[C@H](C)NC(=O)[C@@H]1CSSC[C@H](NC(=O)[C@H](CCCNC(=N)N)NC(=O)CC[C@H](NC(=O)CCCCCCCCCCCCCCCCCCC(=O)O)C(=O)O)C(=O)N[C@@H](CCC(N)=O)C(=O)N[C@@H]([C@@H](C)O)C(=O)N[C@@H](C)C(=O)N[C@@H]([C@@H](C)O)C(=O)N1)[C@@H](C)O) [[19CD]-isoGlu-R-C( )-QTAT-C( )-ATDRLAHFLQRSSF-Gly(Me)-A-Ile(Me)-LSSTEVGSGT-Hyp-NH2 (Compd. 91)]
4,0.22 nM,{C20 diacid}-[γGlu]RCQTATCATDRLAHFLQRSSF[Sar]A[NMeI]LSSTEVGSNTP-NH2 (disulfide 3-8; SMILES CC[C@H](C)[C@@H](C(=O)N[C@@H](CC(C)C)C(=O)N[C@@H](CO)C(=O)N[C@@H](CO)C(=O)N[C@H](C(=O)N[C@@H](CCC(=O)O)C(=O)N[C@H](C(=O)NCC(=O)N[C@@H](CO)C(=O)N[C@@H](CC(N)=O)C(=O)N[C@H](C(=O)N1CCC[C@H]1C(N)=O)[C@@H](C)O)C(C)C)[C@@H](C)O)N(C)C(=O)[C@H](C)NC(=O)CN(C)C(=O)[C@H](Cc1ccccc1)NC(=O)[C@H](CO)NC(=O)[C@H](CO)NC(=O)[C@H](CCCNC(=N)N)NC(=O)[C@H](CCC(N)=O)NC(=O)[C@H](CC(C)C)NC(=O)[C@H](Cc1ccccc1)NC(=O)[C@H](Cc1c[nH]cn1)NC(=O)[C@H](C)NC(=O)[C@H](CC(C)C)NC(=O)[C@H](CCCNC(=N)N)NC(=O)[C@H](CC(=O)O)NC(=O)[C@@H](NC(=O)[C@H](C)NC(=O)[C@@H]1CSSC[C@H](NC(=O)[C@H](CCCNC(=N)N)NC(=O)CC[C@H](NC(=O)CCCCCCCCCCCCCCCCCCC(=O)O)C(=O)O)C(=O)N[C@@H](CCC(N)=O)C(=O)N[C@@H]([C@@H](C)O)C(=O)N[C@@H](C)C(=O)N[C@@H]([C@@H](C)O)C(=O)N1)[C@@H](C)O) [[19CD]-isoGlu-R-C( )-QTAT-C( )-ATDRLAHFLQRSSF-Gly(Me)-A-Ile(Me)-LSSTEVGSNTP-NH2 (Compd. 92)]

# The next lines start with the binder.
row,Binder,hAMYR3 EC50 (nM); cAMP induction
1,{C20 diacid-γGlu}-RCQTATCATERLAHFLQRSSF[Sar]A[NMeI]LSSTEVGSGT[Hyp]-NH2 (disulfide 2-7) [[19CD]-isoGlu-R-C( )-QTAT-C( )-ATERLAHFLQRSSF-Gly(Me)-A-Ile(Me)-LSSTEVGSGT-Hyp-NH2 (Compd. 90)],0.24 nM
2,{C20 diacid}-[γGlu]RCQTATCATERLA[Aad]FLQRSSF[Sar]A[NMeI]LSSTEVGSNTP-NH2 (disulfide 3-8; SMILES CC[C@H](C)[C@@H](C(=O)N[C@@H](CC(C)C)C(=O)N[C@@H](CO)C(=O)N[C@@H](CO)C(=O)N[C@H](C(=O)N[C@@H](CCC(=O)O)C(=O)N[C@H](C(=O)NCC(=O)N[C@@H](CO)C(=O)N[C@@H](CC(N)=O)C(=O)N[C@H](C(=O)N1CCC[C@H]1C(N)=O)[C@@H](C)O)C(C)C)[C@@H](C)O)N(C)C(=O)[C@H](C)NC(=O)CN(C)C(=O)[C@H](Cc1ccccc1)NC(=O)[C@H](CO)NC(=O)[C@H](CO)NC(=O)[C@H](CCCNC(=N)N)NC(=O)[C@H](CCC(N)=O)NC(=O)[C@H](CC(C)C)NC(=O)[C@H](Cc1ccccc1)NC(=O)[C@H](CCCC(=O)O)NC(=O)[C@H](C)NC(=O)[C@H](CC(C)C)NC(=O)[C@H](CCCNC(=N)N)NC(=O)[C@H](CCC(=O)O)NC(=O)[C@@H](NC(=O)[C@H](C)NC(=O)[C@@H]1CSSC[C@H](NC(=O)[C@H](CCCNC(=N)N)NC(=O)CC[C@H](NC(=O)CCCCCCCCCCCCCCCCCCC(=O)O)C(=O)O)C(=O)N[C@@H](CCC(N)=O)C(=O)N[C@@H]([C@@H](C)O)C(=O)N[C@@H](C)C(=O)N[C@@H]([C@@H](C)O)C(=O)N1)[C@@H](C)O) [[19CD]-isoGlu-R-C( )-QTAT-C( )-ATERLA-Aad-FLQRSSF-Gly(Me)-A-Ile(Me)-LSSTEVGSNTP-NH2 (Compd. 93)],0.43 nM
3,{C20 diacid}-[γGlu]RCQTATCATDRLA[Aad]FLQRF[Sar]A[NMeI]LSSTEVGSNT[Hyp]-NH2 (disulfide 3-8; SMILES CC[C@H](C)[C@@H](C(=O)N[C@@H](CC(C)C)C(=O)N[C@@H](CO)C(=O)N[C@@H](CO)C(=O)N[C@H](C(=O)N[C@@H](CCC(=O)O)C(=O)N[C@H](C(=O)NCC(=O)N[C@@H](CO)C(=O)N[C@@H](CC(N)=O)C(=O)N[C@H](C(=O)N1C[C@H](O)C[C@H]1C(N)=O)[C@@H](C)O)C(C)C)[C@@H](C)O)N(C)C(=O)[C@H](C)NC(=O)CN(C)C(=O)[C@H](Cc1ccccc1)NC(=O)[C@H](CCCNC(=N)N)NC(=O)[C@H](CCC(N)=O)NC(=O)[C@H](CC(C)C)NC(=O)[C@H](Cc1ccccc1)NC(=O)[C@H](CCCC(=O)O)NC(=O)[C@H](C)NC(=O)[C@H](CC(C)C)NC(=O)[C@H](CCCNC(=N)N)NC(=O)[C@H](CC(=O)O)NC(=O)[C@@H](NC(=O)[C@H](C)NC(=O)[C@@H]1CSSC[C@H](NC(=O)[C@H](CCCNC(=N)N)NC(=O)CC[C@H](NC(=O)CCCCCCCCCCCCCCCCCCC(=O)O)C(=O)O)C(=O)N[C@@H](CCC(N)=O)C(=O)N[C@@H]([C@@H](C)O)C(=O)N[C@@H](C)C(=O)N[C@@H]([C@@H](C)O)C(=O)N1)[C@@H](C)O) [[19CD]-isoGlu-R-C( )-QTAT-C( )-ATDRLA-Aad-FLQRF-Gly(Me)-A-Ile(Me)-LSSTEVGSNT-Hyp-NH2 (Compd. 95)],0.2 nM
4,{C20 diacid-γGlu}-RCNTATCATQRLA[Aad]FLQRSSF[Sar]A[NMeI]LSSTEVGSST[Hyp]-NH2 (disulfide 2-7; SMILES CC[C@H](C)[C@@H](C(=O)N[C@@H](CC(C)C)C(=O)N[C@@H](CO)C(=O)N[C@@H](CO)C(=O)N[C@H](C(=O)N[C@@H](CCC(=O)O)C(=O)N[C@H](C(=O)NCC(=O)N[C@@H](CO)C(=O)N[C@@H](CO)C(=O)N[C@H](C(=O)N1C[C@H](O)C[C@H]1C(N)=O)[C@@H](C)O)C(C)C)[C@@H](C)O)N(C)C(=O)[C@H](C)NC(=O)CN(C)C(=O)[C@H](Cc1ccccc1)NC(=O)[C@H](CO)NC(=O)[C@H](CO)NC(=O)[C@H](CCCNC(=N)N)NC(=O)[C@H](CCC(N)=O)NC(=O)[C@H](CC(C)C)NC(=O)[C@H](Cc1ccccc1)NC(=O)[C@H](CCCC(=O)O)NC(=O)[C@H](C)NC(=O)[C@H](CC(C)C)NC(=O)[C@H](CCCNC(=N)N)NC(=O)[C@H](CCC(N)=O)NC(=O)[C@@H](NC(=O)[C@H](C)NC(=O)[C@@H]1CSSC[C@H](NC(=O)[C@H](CCCNC(=N)N)NC(=O)CC[C@H](NC(=O)CCCCCCCCCCCCCCCCCCC(=O)O)C(=O)O)C(=O)N[C@@H](CC(N)=O)C(=O)N[C@@H]([C@@H](C)O)C(=O)N[C@@H](C)C(=O)N[C@@H]([C@@H](C)O)C(=O)N1)[C@@H](C)O) [[19CD]-isoGlu-R-C( )-NTAT-C( )-ATQRLA-Aad-FLQRSSF-Gly(Me)-A-Ile(Me)-LSSTEVGSST-Hyp-NH2 (Compd. 87)],0.13 nM

# From patent US20160272693A1 (ZEALAND PHARMA A S, published 2016)
